# Measured values as given in patent publication US20020086007A1, “Angiogenesis-inhibiting peptides and proteins and methods of use” (priority 2000, published 2002).
# B1: endostatin: antiangiogenic fragment of a most C-terminal non-collagenous region of a collagen protein (SEQ ID NO: 1) (protein)
# chain: HSHRDFQPVLHLVALNSPLSGGMRGIRGADFQCFQQARAVGLAGTFRAFLSSRLQDLYSIVRRADRAAVPIVNLKDELLFPSWEALFSGSEGPLKPGARIFSFDGKDVLRHPTWPQKSVWHGSDPNGRRLTESYCETWRTEAPSATGQASSLLGGRLLGQSAASCHHAYIVLCIENSFMTASK
# B2: Alexa-labeled endostatin: endostatin labeled with Alexa dye, visualized under the fluorescent microscope (conjugate, UniProt P39060 1572-1754, looked up)
# Endostatin: B1 chain
# modifications: Endostatin Alexa dye label
# notes: endostatin labeled with Alexa dye, visualized under the fluorescent microscope
# Key:
# HUVECs [1] = assay: Localization of endostatin into cells and nuclei (cytosol/nuclei extract, immunoprecipitation, Western blot); type: cell-based, human; conditions: 100 ug/ml recombinant endostatin, 30 minutes; FIG. 4
# Experimental: 3 T-75 of HUVECs grown at regular growth condition (about 95% confluent) were treated with 100 ug/ml recombinant endostatin for 30 minutes and rinsed with warm 1XPBS and then trypsinized. The control cells from 3 T-75 were the HUVECs treated with the same concentration of endostatin for 1 second. The trypsinized cells were then washed with cold PBS twice. About 40 μl of cell pellet was obtained from all three T-75 flasks. The cytosol extract and nuclei extract was obtained using a nuclei extraction kit (Pierce Company, Rockford, Ill.). The rabbit polyclonal antibodies against human endostatin (Cytimmune Sciences, College Station, Md.) were used to immunoprecipite endostatin protein present in the extract. The immunoprecipited elution was analyzed on Western blot probed with either the same polyclonal antibodies or the mAb 96-2. […] (FIG. 4).
# [2] = test system: tumor induced angiogenesis; conditions: systemic therapy; cited from earlier work
# [3] = test system: cultured endothelial cells; conditions: cited from earlier work
# Live HUVECs cells = assay: Staining of live endothelial cells with Alexa-labeled endostatin (fluorescence microscopy); type: cell-based, human; conditions: 8 ug/ml, 5, 15, 30 and 60 minutes; FIG. 6
# Experimental: Live HUVECs cells were treated with 8 ug/mI Alexa-labeled endostatin for 5 minutes, 15 minutes, 30 minutes and 60 minutes, land washed with M-200 medium and fixed in 3.7% formaldehyde for 5 minutes and cold methanol for 5 minutes. Alexa-labeled endostatin can be visualized under the fluorescent microscope.
# HUVECs [4] = assay: Staining of fixed endothelial cells with Alexa-labeled endostatin; type: cell-based, human; conditions: HUVECs grown at 5 ng/ml VEGF, 40 μg/μl, 30 mins, FIG. 7
# Experimental: HUVECs grown at 5 ng/ml VEGF were fixed in 3.7% formaldehyde for 5 mins. and cold methanol for 5 mins. and then stained with […] Alexa-labeled endostatin for 30 mins.
Molecule,localization into cell and nuclei (HUVECs [1]),suppression of tumor induced angiogenesis [2],inhibition of endothelial proliferation and angiogenesis [3],staining of live cells (Live HUVECs cells),staining of fixed cells (HUVECs [4])
B1,able to localize into HUVEC cell and nuclei,nearly complete suppression,potent and specific inhibitor,–,–
B2,–,–,–,stains the cytosol and nuclei even as early as at the 5 minute time point,"stained not only the cytoskeleton network, but also stained the nuclei"
